First the molecules themselves.
B1: h23-12-1 (antibody, human IgG1, kappa, V domains shown)
VH: QVQLVQSGAEVKKPGASVKVSCKASGYTFTSYWMHWVRQAPGQGLEWMGEITPSDNYTSYNQKFKGRVTITRDTSTSTAYMELSSLRSEDTAVYYCARGHGNYVSFDYWGQGTLVTVSS
VL: DIQMTQSPSSLSASVGDRVTITCRASQDISNYLNWYQQKPGKAPKLLIYYTSRLHSGVPSRFSGSGSGTDFTLTISSLQPEDFATYFCQQGYTLPPYTFGQGTKLEIKR
notes: also called CDR grafted antibody 23-12
B2: h23-12-24 (antibody, human IgG1, kappa, V domains shown)
VH: B1 VH with N56G
VL: B1 VL with H55E
B3: h23-12-28 (antibody, human IgG1, kappa, V domains shown)
VH: B1 VH with H100Q
VL: B1 VL with H55E
B4: h23-12-2 (antibody, human IgG1, kappa, V domains shown)
VH: B1 VH with S54G
VL: B1 VL
B5: h23-12-10 (antibody, human IgG1, kappa, V domains shown)
VH: B1 VH with N56G
VL: B1 VL with T51A
B6: h23-12-41 (antibody, human IgG1, kappa, V domains shown)
VH: B1 VH with H100E
VL: B1 VL with G91Y
B7: h23-12-9 (antibody, human IgG1, kappa, V domains shown)
VH: B1 VH with S54G
VL: B1 VL with T51A
B8: h23-12-11 (antibody, human IgG1, kappa, V domains shown)
VH: B1 VH with T58G
VL: B1 VL with T51A
B9: h23-12-16 (antibody, human IgG1, kappa, V domains shown)
VH: B1 VH with S54G
VL: B1 VL with R53S
B10: h23-12-31 (antibody, human IgG1, kappa, V domains shown)
VH: B1 VH with N56G
VL: B1 VL with H55Q
B11: h23-12-19 (antibody, human IgG1, kappa, V domains shown)
VH: B1 VH with N61A
VL: B1 VL with R53S
B12: h23-12-4 (antibody, human IgG1, kappa, V domains shown)
VH: B1 VH with T58G
VL: B1 VL
B13: h23-12-38 (antibody, human IgG1, kappa, V domains shown)
VH: B1 VH with N56G
VL: B1 VL with G91Y
B14: h23-12-26 (antibody, human IgG1, kappa, V domains shown)
VH: B1 VH with N61A
VL: B1 VL with H55E
B15: h23-12-15 (antibody, human IgG1, kappa, V domains shown)
VH: B1 VH
VL: B1 VL with R53S
B16: h23-12-33 (antibody, human IgG1, kappa, V domains shown)
VH: B1 VH with N61A
VL: B1 VL with H55Q
B17: h23-12-14 (antibody, human IgG1, kappa, V domains shown)
VH: B1 VH with H100Q
VL: B1 VL with T51A
B18: h23-12-40 (antibody, human IgG1, kappa, V domains shown)
VH: B1 VH with N61A
VL: B1 VL with G91Y
B19: h23-12-17 (antibody, human IgG1, kappa, V domains shown)
VH: B1 VH with N56G
VL: B1 VL with R53S
B20: h23-12-29 (antibody, human IgG1, kappa, V domains shown)
VH: B1 VH
VL: B1 VL with H55Q
B21: h23-12-12 (antibody, human IgG1, kappa, V domains shown)
VH: B1 VH with N61A
VL: B1 VL with T51A
B22: h23-12-27 (antibody, human IgG1, kappa, V domains shown)
VH: B1 VH with H100E
VL: B1 VL with H55E
B23: h23-12-23 (antibody, human IgG1, kappa, V domains shown)
VH: B1 VH with S54G
VL: B1 VL with H55E
B24: h23-12-13 (antibody, human IgG1, kappa, V domains shown)
VH: B1 VH with H100E
VL: B1 VL with T51A
B25: h23-12-3 (antibody, human IgG1, kappa, V domains shown)
VH: B1 VH with N56G
VL: B1 VL
B26: h23-12-6 (antibody, human IgG1, kappa, V domains shown)
VH: B1 VH with H100E
VL: B1 VL
B27: h23-12-39 (antibody, human IgG1, kappa, V domains shown)
VH: B1 VH with T58G
VL: B1 VL with G91Y
B28: h23-12-8 (antibody, human IgG1, kappa, V domains shown)
VH: B1 VH
VL: B1 VL with T51A
B29: h23-12-5 (antibody, human IgG1, kappa, V domains shown)
VH: B1 VH with N61A
VL: B1 VL
B30: h23-12-20 (antibody, human IgG1, kappa, V domains shown)
VH: B1 VH with H100E
VL: B1 VL with R53S
B31: h23-12-7 (antibody, human IgG1, kappa, V domains shown)
VH: B1 VH with H100Q
VL: B1 VL
B32: h23-12-30 (antibody, human IgG1, kappa, V domains shown)
VH: B1 VH with S54G
VL: B1 VL with H55Q
B33: h23-12-21 (antibody, human IgG1, kappa, V domains shown)
VH: B1 VH with H100Q
VL: B1 VL with R53S
B34: h23-12-32 (antibody, human IgG1, kappa, V domains shown)
VH: B1 VH with T58G
VL: B1 VL with H55Q
B35: h23-12-35 (antibody, human IgG1, kappa, V domains shown)
VH: B1 VH with H100Q
VL: B1 VL with H55Q
B36: h23-12-37 (antibody, human IgG1, kappa, V domains shown)
VH: B1 VH with S54G
VL: B1 VL with G91Y
B37: h23-12-34 (antibody, human IgG1, kappa, V domains shown)
VH: B1 VH with H100E
VL: B1 VL with H55Q
B38: h23-12-22 (antibody, human IgG1, kappa, V domains shown)
VH: B1 VH
VL: B1 VL with H55E
B39: h23-12-36 (antibody, human IgG1, kappa, V domains shown)
VH: B1 VH
VL: B1 VL with G91Y
B40: h23-12-18 (antibody, human IgG1, kappa, V domains shown)
VH: B1 VH with T58G
VL: B1 VL with R53S

Changes are numbered by the printed parent chain.

In this assay the target is T1, recombinant human Trop-2-his protein (ACCESSION NO.: NP_002344.2, AA 1-274) (human, UniProt P09758 27-274).
T1 construct: range 27-274; also called recombinant human Trop-2 protein; recombinant human Trop-2 extracellular domain; not shown: his tag
T1 sequence (looked up): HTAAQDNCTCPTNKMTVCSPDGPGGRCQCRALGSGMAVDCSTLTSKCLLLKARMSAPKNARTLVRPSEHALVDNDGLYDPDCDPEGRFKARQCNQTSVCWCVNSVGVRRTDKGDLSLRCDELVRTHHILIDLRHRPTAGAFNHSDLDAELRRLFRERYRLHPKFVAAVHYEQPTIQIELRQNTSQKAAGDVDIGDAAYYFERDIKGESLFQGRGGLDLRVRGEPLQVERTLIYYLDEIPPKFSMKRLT
Description: BLI, antibody on AHC sensor, Trop-2-his 60 nM. As for the experimental part: 5-6 days after cell transfection, culture supernatants were purified through ProA affinity chromatography column to obtain different humanized antibodies. Affinities of the obtained antibodies were determined by an assay including capturing Fc fragments of the antibodies with anti-human IgG Fc capture (AHC) biosensors using Octet QKe system instrument from Fortebio. For the assay, each of the humanized antibodies and control antibody Sacituzumab was diluted to 4 μg/ml in PBS, and was allowed to flow through the surface of an AHC biosensor (Cat.: 18-0015, PALL) for 120 s. Recombinant human Trop-2-his protein (ACCESSION NO.: NP_002344.2, AA 1-274) was used as a mobile phase, and its concentration was 60 nM. The binding time was 100 s and the dissociation time was 300 s. When the assay was finished, data from which the response values of blank control had been deducted were fitted to a 1:1 Langmuir binding model using software, and then kinetic constants for antigen-antibody binding were calculated.
Affinities of the antibodies obtained from the combinations of mutants of murine antibody 23-12, chimeric antibody ch23-12 and control antibody Sacituzumab to recombinant human Trop-2-his protein were determined by ForteBijo (Table 5).
(In general: Biolayer interferometry detects binding as a change in optical thickness at a sensor tip.)
By Kd is commonly meant the equilibrium constant for the complex coming apart. Regarding B1, the Kd amounted to 0.272 nM.
With B2, the Kd came out at 5.21 nM.
The result for B3 reads 4.13 nM; that for B4, 0.893 nM.
Consider B5, for which the Kd was 9.62 nM.
Next, B6: 0.782 nM.
The result for B7 reads 1.1 nM; that for B8, 0.881 nM; that for B9, 2.87 nM.
For B10, the equilibrium dissociation constant (Kd) was 63.9 nM.
The result for B11 reads 10 nM.
Next, B12: 0.827 nM; B13: 7.86 nM.
The result for B14 reads 5.43 nM; that for B15, 1.43 nM.
Regarding B16, the Kd worked out at 8.91 nM.
Next, B17: 23.9 nM; B18: 2.16 nM.
Next, B19: 28 nM; B20: 6.72 nM.
The result for B21 reads 26.2 nM; that for B22, 0.496 nM.
Consider B23, for which the Kd was found to be 0.77 nM.
The result for B24 reads 0.916 nM.
In the case of B25, the Kd was 15 nM.
The result for B26 reads 0.298 nM.
The result for B27 reads 0.492 nM; that for B28, 0.9 nM.
Next, B29: 3.2 nM; B30: 1.46 nM.
For B31, the Kd was found to be 6.8 nM.
With B32, the Kd was 9.76 nM.
The result for B33 reads 22.8 nM; that for B34, 0.601 nM; that for B35, 9.77 nM.
Next, B36: 0.893 nM.
The result for B37 reads 5.57 nM; that for B38, 1.3 nM; that for B39, 8.81 nM.
In the case of B40, the Kd was determined as 0.991 nM.
